Assay results from publication PMC12409439 (The Journal of Biological Chemistry, 2025).

Target: the molecule itself
Experiment: cryo-EM structure; Dmc1 (2.5 uM) with 0.125 uM 96-mer ssDNA in HR buffer with 1.5 mM CaCl2 and 5 mM ADP, 30 °C, 5 min, then 8 mM CHAPSO; interdigitated filaments deconvolved into single filaments; filament formation required the ssDNA

B1: Saccharomyces cerevisiae Dmc1 (natural protein, S. cerevisiae)
chain: MSVTGTEIDSDTAKNILSVDELQNYGINASDLQKLKSGGIYTVNTVLSTTRRHLCKIKGLSEVKVEKIKEAAGKIIQVGFIPATVQLDIRQRVYSLSTGSKQLDSILGGGIMTMSITEVFGEFRCGKTQMSHTLCVTTQLPREMGGGEGKVAYIDTEGTFRPERIKQIAEGYELDPESCLANVSYARALNSEHQMELVEQLGEELSSGDYRLIVVDSIMANFRVDYCGRGELSERQQKLNQHLFKLNRLAEEFNVAVFLTNQVQSDPGASALFASADGRKPIGGHVLAHASATRILLRKGRGDERVAKLQDSPDMPEKECVYVIGEKGITDSSD
notes: Dmc1, S. cerevisiae, expressed from a plasmid encoding 6XHisDmc1; Stood as a helical filament assembled with a 96-mer ssDNA, ADP, Mg2+ and Ca2+; six protomers were modelled; No removal of the His tag is described; The N-terminal end of the tag is read from the printed name 6XHisDmc1; also called Dmc1-ADP; source: E. coli BL21 (DE3) Rosetta2, purified (Talon resin, heparin sepharose)
- binding result: binds
